Data as given in the supplement of paper PMC10567573.

B1: ZNF263 (parent)
chain: QPKKLHLCPLCGKNFSNNSNLIRH
B2: FAM164C (parent)
chain: YPHCTGISQQDPESDSQGQGNGLF
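Also: lentivirally expressed fusions sorted by FACS into six bins by GFP to DsRed ratio, PSI derived from sequencing read proportions per bin multiplied by bin number.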

Variants of: B1
Experiment: protein stability index of a GFP-peptide fusion (GPS, HEK-293T) (PSI 1-6); higher = more stable
Conditions: c terminus: a fixed tail appended
With QPKKFHLCPLCGKNFSNNSNLIRH the protein stability index was 1.81.
In the case of QPKKCHLCPLCGKNFSNNSNLIRH, the protein stability index is reported as 2.02.
QPKKKHLCPLCGKNFSNNSNLIRH showed a protein stability index of 2.67.
QPKKWHLCPLCGKNFSNNSNLIRH gave a protein stability index of 2.74.
Work on QPKKLHLCPLCVKNFSNNSNLIRH yielded a protein stability index of 2.36.
In the case of QPKKLHLCPLCHKNFSNNSNLIRH, the protein stability index is reported as 2.4.
Work on QPKKLHLCPLCWKNFSNNSNLIRH yielded a protein stability index of 1.94.
With QPKKLHLCPLCLKNFSNNSNLIRH the protein stability index was 2.07.
Variant QPKKLHLCPLCEKNFSNNSNLIRH has a protein stability index of 2.
In the case of QPKKLHLCWLCGKNFSNNSNLIRH, the protein stability index is reported as 2.4.
Work on QPKKLHLCLLCGKNFSNNSNLIRH yielded a protein stability index of 2.21.
Variant QPKKLHLCSLCGKNFSNNSNLIRH has a protein stability index of 2.52.
For QPKKLHLCMLCGKNFSNNSNLIRH, the protein stability index was 2.31.
QPKKLHLCCLCGKNFSNNSNLIRH gave a protein stability index of 2.3.
Work on QPKKLHLCQLCGKNFSNNSNLIRH yielded a protein stability index of 2.67.
In the case of QPKKLHLCHLCGKNFSNNSNLIRH, the protein stability index is reported as 2.38.
QPKKLHLCPLCGKNFSNLSNLIRH gave a protein stability index of 3.11.
In the case of QPKKLHLCPLCGKNFSNKSNLIRH, the protein stability index is reported as 2.31.
QPKKLHLCPLCGKNFSNMSNLIRH showed a protein stability index of 2.5.
QPKKLHLCPLCGKNFSNASNLIRH gave a protein stability index of 2.97.
Variant QPKKLHLCPLCGKNFSNHSNLIRH has a protein stability index of 2.82.
With QPKKLHLCPLCGKNFSNQSNLIRH the protein stability index was 3.17.
In the case of QPKKLHLCPLCGKNFSNWSNLIRH, the protein stability index is reported as 2.73.
WPKKLHLCPLCGKNFSNNSNLIRH gave a protein stability index of 2.26.
LPKKLHLCPLCGKNFSNNSNLIRH gave a protein stability index of 2.4.
With TPKKLHLCPLCGKNFSNNSNLIRH the protein stability index was 2.5.
With DPKKLHLCPLCGKNFSNNSNLIRH the protein stability index was 3.09.
Variant QPKKLHLCPLCGKNFSNNSNLIQH has a protein stability index of 2.77.
QPKKLHLCPLCGKNFSNNSNLIVH showed a protein stability index of 2.33.
Work on QPKKLHLCPLCGKNFSNNSNLINH yielded a protein stability index of 2.96.
For QPKKLHLCPLCGKNQSNNSNLIRH, the protein stability index was 1.89.
Work on QPKKLHLCPLCGKNMSNNSNLIRH yielded a protein stability index of 1.99.
Variant QPKKLHLCPLCGKNSSNNSNLIRH has a protein stability index of 2.19.
QPKKLHLCPLCGKNDSNNSNLIRH gave a protein stability index of 2.56.
QPKKLHLCPLCGKNTSNNSNLIRH showed a protein stability index of 1.95.
QPKKLHLCPLCGKNRSNNSNLIRH showed a protein stability index of 2.61.
Work on QPKKLHLCPLCGKNASNNSNLIRH yielded a protein stability index of 2.03.
Variant QQKKLHLCPLCGKNFSNNSNLIRH has a protein stability index of 2.47.
For QNKKLHLCPLCGKNFSNNSNLIRH, the protein stability index was 2.31.
QTKKLHLCPLCGKNFSNNSNLIRH showed a protein stability index of 2.57.
QLKKLHLCPLCGKNFSNNSNLIRH gave a protein stability index of 1.81.
Variant QKKKLHLCPLCGKNFSNNSNLIRH has a protein stability index of 2.17.

Variants of: B2
Experiment: as above
Conditions: c terminus: a fixed tail appended
Work on YPHCTKISQQDPESDSQGQGNGLF yielded a protein stability index of 3.23.
Variant YPHCTDISQQDPESDSQGQGNGLF has a protein stability index of 4.23.
In the case of YPHCTGISQQDPQSDSQGQGNGLF, the protein stability index is reported as 3.31.
In the case of YPHCTGISQQDPFSDSQGQGNGLF, the protein stability index is reported as 2.44.
In the case of YPHCTGISQQDPESDSPGQGNGLF, the protein stability index is reported as 3.6.
For YPHCTGISQQDPESDSEGQGNGLF, the protein stability index was 4.4.
YPHCTGISQQDPESDSLGQGNGLF showed a protein stability index of 2.96.
YPHYTGISQQDPESDSQGQGNGLF showed a protein stability index of 3.17.
With YPHRTGISQQDPESDSQGQGNGLF the protein stability index was 4.06.
Variant YPHPTGISQQDPESDSQGQGNGLF has a protein stability index of 3.37.
In the case of YPHCTGISQQDSESDSQGQGNGLF, the protein stability index is reported as 3.98.
Variant YPHCTGISQQDWESDSQGQGNGLF has a protein stability index of 3.27.
For YPHCTGISDQDPESDSQGQGNGLF, the protein stability index was 3.91.
Variant YPHCTGISNQDPESDSQGQGNGLF has a protein stability index of 3.5.
In the case of YPHCTGISKQDPESDSQGQGNGLF, the protein stability index is reported as 3.42.
YPHCTGISFQDPESDSQGQGNGLF gave a protein stability index of 3.05.
YPHCTGISQQDPESDSQGCGNGLF showed a protein stability index of 3.24.
YPHCTGISQQDPESDSQGQGNGQF showed a protein stability index of 4.75.
Variant YPHCTGISQQDPESDSQGQGNGWF has a protein stability index of 2.97.
Variant YPHCTGISQQDPEGDSQGQGNGLF has a protein stability index of 3.74.
Variant YPHCTGISQQDPEFDSQGQGNGLF has a protein stability index of 2.73.
Variant YPHCTGISQQDPESDYQGQGNGLF has a protein stability index of 3.44.
For YPHCTGISQQDPESDEQGQGNGLF, the protein stability index was 4.16.
With YPHCTGISQQDPESDIQGQGNGLF the protein stability index was 3.1.
YPHCTGISQQDPESDTQGQGNGLF gave a protein stability index of 3.73.
For YPHCTGISQQDPESDAQGQGNGLF, the protein stability index was 3.71.
Work on YPHCTGISQQDPESDMQGQGNGLF yielded a protein stability index of 3.62.
In the case of YPHCTGISQQDPESDKQGQGNGLF, the protein stability index is reported as 3.61.
YPHCTGISQQDPESDSQGQMNGLF showed a protein stability index of 3.9.
Work on YPHCWGISQQDPESDSQGQGNGLF yielded a protein stability index of 1.68.
In the case of YPHCDGISQQDPESDSQGQGNGLF, the protein stability index is reported as 4.6.
Variant YPHCTGISQQDPESFSQGQGNGLF has a protein stability index of 2.94.
YPHCTGISQQDPESPSQGQGNGLF showed a protein stability index of 3.46.
YPHCTGISQQDPESKSQGQGNGLF gave a protein stability index of 3.64.
YPHCTGISQQDPESDSQGQGVGLF gave a protein stability index of 3.54.
Variant IPHCTGISQQDPESDSQGQGNGLF has a protein stability index of 5.14.
With SPHCTGISQQDPESDSQGQGNGLF the protein stability index was 5.39.
For KPHCTGISQQDPESDSQGQGNGLF, the protein stability index was 5.28.
YPHCTGICQQDPESDSQGQGNGLF showed a protein stability index of 3.11.
YPHCTGISQQDPESDSQGQGNSLF gave a protein stability index of 3.57.
Work on YPHCTGISQQDPESDSQGQGNNLF yielded a protein stability index of 2.91.
Variant YPHCTGISQQDPESDSQGQGNILF has a protein stability index of 3.22.
YPHCTGISQQDPESDSQGQGNWLF showed a protein stability index of 2.04.
With YPHCTGISQQAPESDSQGQGNGLF the protein stability index was 3.66.
With YNHCTGISQQDPESDSQGQGNGLF the protein stability index was 4.54.
Work on YIHCTGISQQDPESDSQGQGNGLF yielded a protein stability index of 2.83.
Work on YKHCTGISQQDPESDSQGQGNGLF yielded a protein stability index of 4.51.
In the case of YPHCTGISQQDPESDSQGQGNGLS, the protein stability index is reported as 5.04.
In the case of YPHCTGISQADPESDSQGQGNGLF, the protein stability index is reported as 3.48.
In the case of YPHCTGISQNDPESDSQGQGNGLF, the protein stability index is reported as 4.05.
For YPHCTGISQDDPESDSQGQGNGLF, the protein stability index was 3.68.
YPHCTGISQFDPESDSQGQGNGLF showed a protein stability index of 3.19.
